Experiments:
[1] = target: T1, human wildtype KRas4B 1-169 (C-terminal truncated) (human, UniProt P01116-2 1-169); assay: BLI; 2:1 heterogeneous model, binding type 2 (69-99 %)
[2] = target: T1, human wildtype KRas4B 1-169 (C-terminal …); assay: BLI; 1:2 bivalent model

Kd [1]: 1.62 µM
Kd [2]: 48.2 µM
B1: GST-Rgl2^RA (Ras association domain of human Rgl2, residues 643-740, fused with GST) (domain or fragment)
chain: GPGASDCRIIRVQMELGEDGSVYKSILVTSQDKAPSVISRVLKKNNRDSAVASEYELVQLLPGERELTIPASANVFYAMDGASHDFLLRQRRRSSTAT

Reference: article PMC10576006 (2023)
